Reference: patent US20250213704A1, “METHOD OF TREATING A CANCER WITH A MULTIVALENT PEPTIDE CONJUGATE” (Valitor, Inc, priority 2022, published 2025)

Key:
Human VEGF 165 [1] = molecular target: T1, Human VEGF 165 (human, UniProt P15692-4 27-191, Avi tag (as printed under Tags); the tag's sequence and place are not given); assay: BLI (Gator), Avi-tagged human VEGF 165 on the probe, conjugate as analyte, 1:1 global fit; 90.5 kDa CMC, valency 9, 48.41 percent unconjugated peptide
T1 construct: Bought reagent loaded on the BLI probes as ligand; VEGF165 is one isoform of it; also called BLI ligand, Avi tag, R&D Systems AVI-293-050
T1 sequence (P15692 other isoform, or with tags, fused parts or gaps limits assumed): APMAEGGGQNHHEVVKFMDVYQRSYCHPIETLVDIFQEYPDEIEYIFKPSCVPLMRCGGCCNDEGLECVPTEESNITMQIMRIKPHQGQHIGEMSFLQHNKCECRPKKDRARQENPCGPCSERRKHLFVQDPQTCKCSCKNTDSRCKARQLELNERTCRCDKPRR
Method: (§1) Either one or two probes per sample (one for kinetic assay and one for ligand free control if used) were equilibrated in 250 μL BLI buffer (PBS pH 7.4, 0.2% Tween and 0.2% BSA filtered at 0.2 μm) for at minimum 10 min in a Gator Bio Max plate. Ligands were diluted to a fixed concentration of 25-100 nM based on performance in pilot reactions in BLI buffer. Analytes were prepared at the top concentration determined in pilot reactions in BLI buffer and serially diluted 1:3 two to five more times using BLI buffer (Table 3). Black flat-bottom non-coated 96 well plates (Greiner Bio One Cat #655209 or similar) were loaded column-wise with 200 μL of ligand, analyte dilutions and one column of BLI buffer for each column of ligand and analyte. One well in each column of analyte was BLI buffer to be used as a blank for reference subtraction. The sample plate was placed in the Gator on a tilted platform set to 25° C. […] Next, the kinetic reads were started using the step parameters. If a ligand-free control was conducted, when kinetic reads were complete with ligand-loaded probes, the ligand free control was run using new probes that were not loaded with the ligand. The same kinetic assay timing and same sample wells were used that were analyzed with ligand loaded probes.
(§2) When kinetic assay was complete, data was analyzed using the Gator software. […]

Human VEGF 165 [2] = molecular target: T1, Human VEGF 165; assay: BLI (Gator), Avi-tagged human VEGF 165 on the probe, conjugate as analyte, 1:1 global fit; 250 kDa CMC, valency 21, 44.37 percent unconjugated peptide
Method: as §1, §2

[3] = test system: SK-MEL-28 melanoma tumors; assay: Intratumoral pharmacokinetics, in vivo imaging of Sulfo-Cy7 tagged protein after IT injection, tumor type 1; design: species or system athymic nude mice
Method: FIG. 2A-2C show results of intra-tumoral administration in xenografts in mice. […] The intra-tumoral half-lives were calculated using exponential decay fits of region of interest (ROI) radiant efficiency of infrared-tagged treatment peptides over 168 hours. […] The intra-tumoral half-lives were calculated using exponential decay fits of ROI radiant efficiency of infrared-tagged treatment peptides over 264 hours.
Mouse tumor models for evaluating the clearance rate of proteins from solid tumors were used to measure the intratumoral (IT) half-life of MVPs to maximize the parameters for tumor retention. Antibodies tagged using the amine-reactive Sulfo-Cy7 NHS ester (Broadpharm Cat #BP-22541) near-infrared fluorophore by the following method were used. This method was conducted under aseptic conditions. First, the dye was dissolved DMSO at 10 mg/mL concentration. Then, the protein at 5.0-10.0 mg/mL concentration was mixed with 0.1 M sodium bicarbonate at a 3:2 vol:vol ratio. Lastly, the fluorophore was added at a 1:2 protein:fluorophore molar ratio, mixed well, and incubated at room temperature for one hour on a neutator protected from the light by covering with foil. The NHS esters were quenched by adding 1.5 M Tris buffer pH 8.5 at 10% of the reaction volume and mixed on a neutator for another 10 minutes. The tagged protein was purified away from the unreacted fluorophore using a NAP-10 desalting column (illustra Cat #17-0854-01) that was equilibrated with PBS pH 7.0+0.01% Tween-20 according to the manufacturer's directions. The protein concentration and degree of Cy7 labeling was determined by the absorbance at 280 and 750 nm. […]
Tumors were established by injecting 3×10^6 SK-MEL-28 cells mixed 1:1 with Matrigel (Corning Cat #354234) in a 0.1 mL volume subcutaneously into the right flank of 8 week old athymic nude mice (Table 6). The tumor size was monitored until it reached a size of […]. […] When the study concluded, the half-life of each treatment was determined following injection using exponential decay calculations for optical in vivo imaging (Table 7).

[4] = test system: MDA-MB-231 breast cancer tumors; design: species or system nude mice; conditions: mouse, in vivo

B1: Conjugate 114: Anti-VEGF VHH (SEQ ID NO: 8) conjugated to 90.5 kDa CMC, valency 9 (other)
VHH: MQVQLVESGGGLVQPGGSLRLSCAASGFAYSTYSMGWFRQAPGKEREAVATINSGTFRLWYTDSVKGRFTISRDNSKNTLYLQMNSLRPEDTAVYYCAARAWSPYSSTVDAGDFRYWGQGTLVTVSSAEAAAKEAAAKEAAAKAGC
modifications: C-terminal Cys thiol linked through a hydrazide-PEG2-maleimide linker to 90.5 kDa carboxymethyl cellulose
notes: Multivalent peptide-polymer conjugate; valency 9 is the mean molar ratio of peptide to polymer; also called anti-VEGF MVP
Kd (Human VEGF 165 [1]): 0.966 nM

B2: Conjugate 115: Anti-VEGF VHH (SEQ ID NO: 8) conjugated to 250 kDa CMC, valency 21 (other)
VHH: MQVQLVESGGGLVQPGGSLRLSCAASGFAYSTYSMGWFRQAPGKEREAVATINSGTFRLWYTDSVKGRFTISRDNSKNTLYLQMNSLRPEDTAVYYCAARAWSPYSSTVDAGDFRYWGQGTLVTVSSAEAAAKEAAAKEAAAKAGC
modifications: C-terminal Cys thiol linked through a hydrazide-PEG2-maleimide linker to 250 kDa carboxymethyl cellulose
notes: Multivalent peptide-polymer conjugate; valency 21 is the mean molar ratio of peptide to polymer; also called anti-VEGF MVP
Kd (Human VEGF 165 [2]): 0.583 nM

B3: Conjugate 110: Anti-VEGF DARPin (SEQ ID NO: 1) conjugated to 700 kDa CMC, MP2H linker, valency 20 (conjugate)
chain: SNAGSDLDKKLLEAARAGQDDEVRILMANGADVNARDSTGWTPLHLAAPWGHPEIVEVLLKNGADVNAADFQGWTPLHLAAAVGHLEIVEVLLKYGADVNAQDKFGKTAFDISIDNGNEDLAEILQKAAGGGSGGGSC
modifications: conjugated to 700 kDa CMC via MP2H linker; aVEGF_Gly_Cys DARPin
IT half-life compared with unconjugated anti-VEGF DARPin and other conjugate (in words) ([3]; mouse, in vivo): longer than that of the unconjugated anti-VEGF DARPin or the peptide conjugated to a 90 kDa CMC | Intratumoral t1/2 ([3]; mouse, in vivo): 48.7 ± 24.7 h

B4: Unconjugated: Unconjugated Sulfo-Cy7 tagged anti-VEGF DARPin (SEQ ID NO: 1), comparator for the conjugates (protein)
chain: SNAGSDLDKKLLEAARAGQDDEVRILMANGADVNARDSTGWTPLHLAAPWGHPEIVEVLLKNGADVNAADFQGWTPLHLAAAVGHLEIVEVLLKYGADVNAQDKFGKTAFDISIDNGNEDLAEILQKAAGGGSGGGSC
modifications: Sulfo-Cy7 label; aVEGF_Gly_Cys DARPin
Intratumoral t1/2 [4]: 15.1 ± 9.8 h

B5: Conjugate 101: Anti-VEGF DARPin (SEQ ID NO: 1) conjugated to 700 kDa CMC, MP2H linker, valency 13 (conjugate)
chain: SNAGSDLDKKLLEAARAGQDDEVRILMANGADVNARDSTGWTPLHLAAPWGHPEIVEVLLKNGADVNAADFQGWTPLHLAAAVGHLEIVEVLLKYGADVNAQDKFGKTAFDISIDNGNEDLAEILQKAAGGGSGGGSC
modifications: conjugated to 700 kDa CMC via MP2H linker; aVEGF_Gly_Cys DARPin
IT half-life compared with unconjugated anti-VEGF DARPin and other conjugate (in words) [4]: longer than that of the unconjugated anti-VEGF DARPin or the peptide conjugated to a 830 kDa hyaluronic acid (HyA) | Intratumoral t1/2 [4]: 101.2 ± 34.9 h

B6: Conjugate 111: Anti-VEGF DARPin (SEQ ID NO: 1) conjugated to 90 kDa CMC, EMCH linker, valency 34 (conjugate)
chain: SNAGSDLDKKLLEAARAGQDDEVRILMANGADVNARDSTGWTPLHLAAPWGHPEIVEVLLKNGADVNAADFQGWTPLHLAAAVGHLEIVEVLLKYGADVNAQDKFGKTAFDISIDNGNEDLAEILQKAAGGGSGGGSC
modifications: 90 kDa CMC via EMCH linker; aVEGF_Gly_Cys DARPin
Intratumoral t1/2 ([3]; Tumor type 1 (SK-MEL-28 melanoma xenograft), 40 μL IT injection, exponential decay fit of ROI radiant efficiency over 168 hours): 18.0 ± 3.4 h

B7: Conjugate 109: Anti-VEGF DARPin (SEQ ID NO: 1) conjugated to 830 kDa HyA, MP2H linker, valency 34 (conjugate)
chain: SNAGSDLDKKLLEAARAGQDDEVRILMANGADVNARDSTGWTPLHLAAPWGHPEIVEVLLKNGADVNAADFQGWTPLHLAAAVGHLEIVEVLLKYGADVNAQDKFGKTAFDISIDNGNEDLAEILQKAAGGGSGGGSC
modifications: conjugated to 830 kDa HyA via MP2H linker; aVEGF_Gly_Cys DARPin
Intratumoral t1/2 [4]: 20.5 ± 7.0 h
